This note sets out measurements from patent publication US20230250168A1 (MABWELL SHANGHAI BIOSCIENCE, published 2023).

The target of assay [1] is T1, human CLDN18.2 expressed on cell surfaces (human, UniProt P56856-2 1-261).
T1 construct: whole, on cells; also called CHOK1 cells stably expressing human CLDN18.2
Put plainly: flow cytometry on CHOK1 cells expressing human CLDN18.2, goat anti-human IgG secondary, normalised MFI. The procedure: The chimeric anti-human CLDN18.2 antibodies were diluted 2-fold in gradient from an initial concentration of 100 nM and solutions of each antibody of 16 concentrations were obtained. 10 μl of the solutions of each antibody of each concentration was added to a 384-well plate. CHOK1 cells expressing CLDN18.2 on the cell surface were collected by centrifugation for 5 min at 100 g at room temperature, and the cells were washed with PBS containing 0.5% BSA once and then were centrifuged for 5 min at 100 g at room temperature. The cells were resuspended at a density of about 2×10⁶ cells/ml, and 10 μl was added to each well of the 384-well plate to which the antibody had been added. After incubation for 1 hour at 4° C., fluorescently labeled secondary goat anti-human IgG antibody was added. After continued incubation for 1 hour at 4° C., the mean fluorescence readings of the cell populations were analyzed by a flow cytometer.
(In general: A flow cytometer gives signals particle by particle.)

Assay [2] has as its target T1, human CLDN18.2 expressed on cell …. Put plainly: FACS of hybridoma supernatants on CHOK1 cells. The procedure:
Balb/c mice were immunized with CHOK1 cells stably expressing human CLDN18.2 protein on cell surfaces. One month later, sera from the mice were analyzed by flow cytometry (FACS), and spleens were taken from mice having high antibody titers in sera. The spleen cells isolated by standard methods were fused with myeloma cells P3X63Ag8.653 using PEG or electrofusion methods. The fused hybridoma cells were seeded in 384 well plates, and after 10-14 days of culture, supernatants obtained were analyzed by FACS for antibody secretion by the hybridoma cells. Several clones were obtained that were able to bind to CHOK1 cells stably expressing human CLDN18.2 protein on cell surfaces and were not able to bind to CHOK1 cells stably expressing human CLDN18.1 protein on cell surfaces. Single cells of the obtained clones were obtained by Limiting Dilution, and each of the monoclonal hybridoma cell clones obtained after being diluted three times secreted only one antibody.

In assay [3] the target is T2, antigen human CLDN18.2, His-tagged (human, UniProt P56856-2 1-261, limits assumed).
T2 construct: Recombinant antigen used in the Fortebio assay (His-tagged, captured on NTA probe); also called His-tagged antigen; not shown: His tag
The assay can be described thus: BLI (Fortebio), His-tagged antigen on NTA probe, 100 nM antibody, 1:1 fit. As for the experimental part:
The binding kinetic parameters of the chimeric antibodies and the humanized antibodies thereof to the antigen human CLDN18.2 were analyzed by a Fortebio (BLITZ pro1.1.0.28) instrument. Before performing the assay, an NTA bioprobe was soaked in PBS for 10 min, and the probe was then placed in PBS containing 100 nM antigen for 300 s to capture the His-tagged antigen. The probe was further subjected to a binding reaction with 100 nM antibody for a binding time of 400 s, and the probe was then transferred to PBS and subjected to a dissociation reaction for 600 s. When the assay was finished, data from which the response value of a blank control had been deducted were fitted to a 1:1 Langmuir binding model using software, and then the kinetic constants for antigen-antibody binding were calculated.

Assay [4] concerns the target T1, human CLDN18.2 expressed on cell …. The assay can be described thus: cell-based or functional assay.
Assay [5] shares this target. Put plainly: cell-based or functional assay. The source holds these as a separate data set.
For assay [6], the target named is T2, antigen human CLDN18.2, His-tagged. Put plainly: SPR (BIAcore), antibody captured by anti-human Fc, antigen as analyte. The procedure: Referring to the instructions provided in the Human Antibody Capture Kit (cat No. BR-1008-39, Lot 10261753) from GE Healthcare, the analytical channel and the control sample channel on a CM5 sensor chip were first saturated and coupled with the maximum amount of anti-human Fc antibody, then buffers containing anti-human CLDN18.2 chimeric antibodies, humanized antibodies or a control antibody IMAB362 at 7.5 μg/ml were allowed to flow through the analytical channel and uniformly distribute. Finally, antigen samples diluted in gradient (the initial concentration was 20 nM and diluted by 1:3 to get 8 concentrations, and the concentration 0.741 nM was set to be repeated) were allowed to flow through both the analytical channel and the sample channel, and the photoreactions upon the binding of antibody to antigen were measured. Subsequently, the association constant Kon and dissociation constant Koff and affinity constant KD of each antibody were finally obtained by instrument software fitting analysis.
(Surface plasmon resonance follows binding to a sensor surface in real time, without labels.)

Substitutions are numbered along the chain they refer to.

B1: 46J05-xiIgG (antibody, V domains shown)
VH: DVQLVESGGGLVQPGGSRKLSCAASGFTFSRFGMHWVRQAPKKGLEWVAYISSGSNTIYYADTVKGRFTISRDNPKNTLFLQTTSLRSEDTAIYYCGRLGFYGNSFDHWGQGTLVTVSA
VL: NILMTQSPSSLTVTAGEKVTMNCKSSQSLLNGGNQRNYLTWYQQKAGQPPKLLIYWASTRESGVPDRFTGGGSGTDFTLTISSVQAEDLALYYCQNSYYYPLTFGAGTKLELKR
notes: murine variable regions on human IgG1 / kappa constant regions; also called 46J05 chimeric antibody
Consider B1, for which the binding result in assay [1] was “binds”.

B2: murine antibody 46J05 (antibody, V domains shown)
VH: B1 VH
VL: NILMTQSPSSLTVTAGEKVTMNCKSSQSLLNGGNQRNYLTWYQQKAGQPPKLLIYWASTRESGVPDRFTGGGSGTDFTLTISSVQAEDLALYYCQNSYYYPLTFGAGTKLELK
notes: Mouse hybridoma antibody (supernatant)
For the molecule B2, in assay [2], the binding result is reported as “binds”.

B3: 43L6-xiIgG (antibody, V domains shown)
VH: QVQLKESGPDLVAPSQSLSLTCSVSGFSLTSYGIHWVRQPPGKGLEWLVVIWSDGRTTYNSGLKSRLSISKDNSKSQVLLKMNSLRTDDTAIYYCVRHPAFGPHAMDYWGQGTSVTVSS
VL: DIVMTQAAPSVPVTPGESVSISCRSSKSLLNSNGNTYLYWFLQRPGQSPQLLIYRMSNLASGVPDRFSGSGSGTDFTLRISRVEAGDVGVYYCMQYLEYPVTFGAGTKLELKR
notes: murine variable regions on human IgG1 / kappa constant regions; also called 43L6 chimeric antibody
On to B3, for which the binding result in assay [1] is “binds”.

B4: murine antibody 43L6 (antibody, V domains shown)
VH: B3 VH
VL: DIVMTQAAPSVPVTPGESVSISCRSSKSLLNSNGNTYLYWFLQRPGQSPQLLIYRMSNLASGVPDRFSGSGSGTDFTLRISRVEAGDVGVYYCMQYLEYPVTFGAGTKLELK
notes: as for B2
As to B4, the binding result in assay [2] was “binds”.

B5: 11M23-xiIgG (antibody, V domains shown)
VH: QVQLKESGPDLVAPSQSLSITCTVSGFSLTNYGVHWVRQPPGKGLEWLVVIWSDGRINYNSALKSRLSITKDNSKRQVFLKMNSLQIDDTAIYYCVRHPAFGPHAMDYWGQGISVTVSS
VL: B3 VL with A7D, V11I, Q50H, I53L, L59P, V63A, D75E, G86E, V101P, K108R
notes: Murine variable regions on human IgG1 / kappa constant regions; also called 11M23 chimeric antibody
Usually Kd stands for a measure of binding affinity in units of concentration. A higher Kd goes with weaker binding. What is called koff is the first-order rate constant of dissociation. Lower therefore signals slow dissociation. Usually kon stands for the second-order rate constant of association. A high value points to fast association. In assay [3], B5 showed a Kd of 0.293 nM, a Response of 0.184, a koff of 0.000107 s⁻¹ and an on-rate (kon) of 366000 M⁻¹ s⁻¹.

B6: murine antibody 20L17 (antibody, V domains shown)
VH: DVQLVESGGGLVQPGGSRKLSCAASGFTFSSFGMHWVRQAPEKGLEWVAYISSGSSTIYYPDTVKGRFTVSRDNPKNTLFLQMTSLRSEDTAMYYCVRLGPRGNVMDHWGQGTSVTVSS
VL: DIVMTQSPSSLTVTAGEKVTMSCKSSQSLLNSGNQRNYLTWYQQKPGQPPKLLIYWASTRESGVPDRFTGSGSGTDFTLTISSVQAEDLAVYYCQNVYFYPLTFGTGTKLELR
notes: as for B2
Take B6: the binding result in assay [2] was “binds”.

B7: IMAB362 (antibody, human IgG1, kappa, V domains shown)
VH: QVQLQQPGAELVRPGASVKLSCKASGYTFTSYWINWVKQRPGQGLEWIGNIYPSDSYTNYNQKFKDKATLTVDKSSSTAYMQLSSPTSEDSAVYYCTRSWRGNSFDYWGQGTTLTVSS
VL: DIVMTQSPSSLTVTAGEKVTMSCKSSQSLLNSGNQKNYLTWYQQKPGQPPKLLIYWASTRESGVPDRFTGSGSGTDFTLTISSVQAEDLAVYYCQNDYSYPFTFGSGTKLEIKR
notes: Chimeric anti-CLDN18.2 antibody of Ganymed, used as control; also called control antibody IMAB362
Regarding B7, in assay [4], the “CDC EC50, BxPC3 cells stably expressing human CLDN18.2 (CCK-8)” value turned out to be 52.2 nM; the “CDC EC50, CHOK1 cells stably expressing human CLDN18.2 (CCK-8)” value came out at 30.4 nM; the “CDC EC50, NCI-N87 cells stably expressing human CLDN18.2 (CCK-8)” value turned out to be 474 nM. Besides, in assay [5], the “ADCC reporter EC50 (Jurkat NFAT-luciferase effector cells), BxPC3 target cells” value turned out to be 0.106 nM; the “ADCC reporter EC50 (Jurkat NFAT-luciferase effector cells), CHOK1 target cells” value is 0.593 nM; the “ADCC reporter EC50 (Jurkat NFAT-luciferase effector cells), NCI-N87 target cells” value came to 0.0909 nM. Besides, in assay [6], the dissociation constant Kd amounted to 136 nM, the koff was 0.201 s⁻¹ and the association rate constant (kon) amounted to 1.48e+06 M⁻¹ s⁻¹.

B8: 43B5-xiIgG (antibody, V domains shown)
VH: DVQLQESGPDLVKPSQSLSLTCTVSGYSISGAYNWHWIRQFPGNKLEWLAYMQYSGSSNYNPSFKSRISISRDTSKNQFFLQLKSVTTEDTATYYCARMYNGNSFLYWGQGTLVTVSA
VL: B7 VL with S22N, L30F, K51R, A90S, V91L, D97S, F102L, S106A, I112L
notes: murine variable regions on human IgG1 / kappa constant regions; also called 43B5 chimeric antibody
In general, EC50 (read off the curve) refers to the concentration needed to bring the measured effect to its halfway point. A lower EC50 (read off the curve) goes with greater potency. In the case of B8, the concentration for a half-maximal effect (EC50 (read off the curve)) in assay [1] is ~1 nM.

B9: 20L17-xiIgG (antibody, V domains shown)
VH: B6 VH
VL: B7 VL with K36R, D97V, S99F, F102L, S106T, I112L, K113R
notes: murine variable regions on human IgG1 / kappa constant regions; also called 20L17 chimeric antibody
As to B9, in assay [1], the binding result is given as “binds”.

B10: 48G12-xiIgG (antibody, V domains shown)
VH: EVQLRQSGPELVKPGASVKMSCKASGYTFTTYIINWVKQKPGQGLEWIGYINPYNDDTRYNERVKGKATLTSDKSSSTAYMELSSLTSEDSAVYYCARFYFGNSFTYWGQGTLVTVSA
VL: DIVMTQSPSSLPVTVGERVTMTCKSSQGLFNSGNQRNYLTWYQQKPGQPPKLLIYWASTRESGVPDRFTGSGSGTDFTLTISSVQAEDLAIYYCQNNYIYPLTFGAGTKLELKR
notes: murine variable regions on human IgG1 / kappa constant regions; also called 48G12 chimeric antibody
Take B10: the binding result in assay [1] is on record as “binds”.

B11: murine antibody 48G12 (antibody, V domains shown)
VH: B10 VH
VL: DIVMTQSPSSLPVTVGERVTMTCKSSQGLFNSGNQRNYLTWYQQKPGQPPKLLIYWASTRESGVPDRFTGSGSGTDFTLTISSVQAEDLAIYYCQNNYIYPLTFGAGTKLELK
notes: as for B2
Consider B11, for which the binding result in assay [2] was “binds”.

B12: 50C14-xiIgG (antibody, V domains shown)
VH: B10 VH with D57G, Y100H
VL: B10 VL with V15T, R18K, S32N, T69I, Y100F
notes: murine variable regions on human IgG1 / kappa constant regions; also called 50C14 chimeric antibody
Regarding B12, the binding result in assay [1] is reported as “binds”.

B13: 11M23-hz00 (antibody, human IgG1, V domains shown)
VH: QVQLVESGGGVVQPGRSLRLSCAASGFSLTNYGVHWVRQAPGKGLEWVAVIWSDGRINYNSALKSRFTISRDNSKNTLYLQMNSLRAEDTAVYYCARHPAFGPHAMDYWGQGTLVTVSS
VL: DIVMTQSPLSLPVTPGEPASISCRSSKSLLNSNGNTYLYWYLQKPGQSPQLLIYRMSNPASGVPDRFSGSGSGTDFTLKISRVEAEDVGVYYCMQYLEYPPTFGAGTKLEIK
notes: Humanized (direct CDR graft)
In assay [3], B13 gave a Kd of 1.49 nM, a Response of 0.164, a koff of 0.000324 s⁻¹ and a kon of 218000 M⁻¹ s⁻¹.

B14: 11M23-hz11 (antibody, V domains shown)
VH: B13 VH with R71K
VL: B13 VL with Y41F
Regarding B14, in assay [3], the Kd is 1.29 nM, the Response was determined as 0.174, the dissociation rate constant (koff) came to 0.00046 s⁻¹ and the kon is 356000 M⁻¹ s⁻¹.

B15: 11M23-hz22 (antibody, V domains shown)
VH: B13 VH with D54E, N60Q, R71K
VL: B13 VL with N31S, N33S, Y41F
As to B15, in assay [3], the Kd was 2.92 nM, the Response was found to be 0.136, the off-rate constant (koff) amounted to 0.00195 s⁻¹ and the kon turned out to be 670000 M⁻¹ s⁻¹.
